Residue numbers refer to the chain shown, from its start. Names may count otherwise. Values belong to the binder of their own block, whether it stands above or below them.
Biological target: Proliferating cell nuclear antigen (PCNA), wild type (UniProt P15873)
Assay: MST; fluorescently labeled PCNA (22 nM, RED-NHS) constant, Mus81 (1-319) fragment 1.3-5500 nM; T buffer with 0.05% Tween-20 and 150 mM KCl; 25 °C; Monolith NT.115; apparent Kd

Kd: 0.253 µM
B1: N-terminal fragment of Mus81 (1-319) (domain or fragment)
chain: MELSSNLKDLYIEWLQELVDGLTPKQEQLKIAYEKAKRNLQNAEGSFYYPTDLKKVKGIGNTIIKRLDTKLRNYCKIHHISPVEAPSLTQTSSTRPPKRTTTALRSIVNSCENDKNEAPEEKGTKKRKTRKYIPKKRSGGYAILLSLLELNAIPRGVSKEQIIEVAGKYSDHCMTPNFSTKEFYGAWSSIAALKKHSLVLEEGRPKRYSLTEEGVELTKSLKTADGISFPKENEEPNEYSVTRNESSEFTANLTDLRGEYGKEEEPCDINNTSFMLDITFQDLSTPQRLQNNVFKNDRLNSQTNISSHKLEEVSDDQTV

Kd: 20.5 µM
B2: Mus81 (1-319) E44Q mutant (domain or fragment)
chain: B1 chain with E44Q
